Assays:
[1] = test system: MC38ova tumor-bearing mice; assay: Peripheral effects in MC38ova tumor-bearing mice: anti-mIL18BP vs engineered mIL-18; format: in vivo; conditions: mouse, in vivo
Method: Nine days pre-inoculum, vials of MC38ova^dim cells were thawed into RPMI media containing 10% FBS, 1% Glutamax, 1% Sodium pyruvate, 1% HEPES, 1% NEAA, 0.01% 2-mercaptoethanol, 1% Penicillin-Streptomycin. Following centrifugation at 300×g for 8 min, cell pellet was resuspended, counted and seeded in a T175 flask. On days −7, −5 and −2, the cells were detached and re-seeded at 6-8*10^6 cells/T175 flask. On the day of inoculum, the cells were detached, centrifuged at 300×g for 10 min, filtered through […] cell strainer and resuspended in RPMI.
Experiments were performed in C57Bl/6 (female, 6-8 wk, Envigo). Mice were anesthetized with 10% Ketamine and 10% Xylazine mixture injected intraperitoneal. Next, mice were inoculated with MC38ova cells (1.2×10^6) subcutaneously to the right flank in 50 μl/mice.
At tumor volume of −120 mm^3 (day 9), mice were randomly assigned into treatment groups. Mice were treated with Synagis mouse IgG1, k isotype control 15 mg/kg (IP), anti-mIL18 bp 837 mIgG1 15 mg/kg (IP), PBS (SC), or engineered IL-18 (SC) 0.32 mg/kg. Treatments were injected twice a week for a total of 6 treatments. […] Mice were weighed every week. Mice were bled before the 4th treatment, 4 hours after the 4th treatment, and 24 hours after the 4th treatment. Serum was analyzed for presence of IFNg, TNFα, MCP1, IL6 by Cytometric Bead Array (CBA) Mouse Inflammation Kit (BD Cat. No. 552364). Spleens were harvested from mice 24 hours after the 4th treatment and weighed. For IL15 experiments, mice were treated with a single dose of 0.5 μg, 1.5 μg of IL15, or with a mix of 0.5 μg IL15 and 2.33 μg IL15R.
Spleens were crushed into 40 μm filters and red blood cells were lysed. Single-cell suspensions were seeded into a 96-well V-bottomed plate. Cells were labeled for viability and dead cells were excluded using the Fixable Viability Stain 450 (BD Bioscience Cat #562247). To block Fcγ receptors, cells were incubated with 10 μg/mL of Purified Rat Anti-Mouse CD16/CD32 (Mouse BD Fc Block™, BD Bioscience Cat #553142) in cold 1×PBS buffer for 10 minutes. Various immune populations were stained with anti-mouse antibodies (Table 17). After washing (1% BSA, 0.1% sodium azide, in PBS), cells were acquired on FACS Fortessa cytometer (BD Bioscience). Analysis was done using FlowJo.

IL18-BP = biological target: T1, IL18-BP (Mus musculus, UniProt Q9Z0M9); conditions: cited from earlier work
T1 sequence (Q9Z0M9 29-193): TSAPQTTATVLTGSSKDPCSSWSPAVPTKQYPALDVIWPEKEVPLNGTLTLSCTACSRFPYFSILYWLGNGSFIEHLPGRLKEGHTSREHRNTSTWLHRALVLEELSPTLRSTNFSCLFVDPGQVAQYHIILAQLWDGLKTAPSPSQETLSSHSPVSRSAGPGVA

B1: engineered mIL-18: Engineered IL-18 of US 20190070262A1, SEQ ID NO: 1920 (protein)
chain: HFGRLHCTTAVIRNINDQVLFVDKRQPVFEDMTDIDQSASEPQTRLIIYAYGDSRARGKAVTLSVKDSKMSTLSCKNKIISFEEMDPPENIDDIQSDLIFFQKRVPGHNKMEFESSLYEGHFLACQKEDDAFKLILKKKDENGDKSVMFTLTNLHQSHHHHHH
Activation state of splenic lymphocytes vs control [1]: significantly more CD69+CD4+ T-cells, CD69+CD8 T-cells, CD69+B Cells, CD107+NK cells, and CD69+CD107+ NKT cells | Serum levels of IL18, 4 hours after the 4th treatment [1]: very high serum levels of IL18 | Serum levels of IL18, 24 hours after the 4th treatment [1]: returned to baseline | Spleen enlargement vs control, average [1]: 4.9 folds | Splenic CD45+ immune cells, CD3+ T cells and CD19+ B cells vs control [1]: larger number of CD45+ immune cells, as well as CD3+ T cells and CD19+B cells | Binding to IL18-BP (IL18-BP): not to bind IL18-BP

— US20240425607A1, “IL-18BP ANTAGONIST ANTIBODIES AND THEIR USE IN MONOTHERAPY AND COMBINATION THERAPY IN THE TREATMENT OF CANCER” (Compugen Ltd., priority 2023, published 2024)
